{"source": "paper PMC8589321", "about": "(Science Advances, 2021)", "binders": {"B1": {"name": "complex I subunit ND6 (Yarrowia lipolytica) (natural protein, UniProt Q9B6E9 1-185, looked up)", "chain": "MMYLTYYFIEITIFLAILCTIFIISAKNPMVSILYMIALFVIAAMYLYLIGLGIFSLLYIMIYIGAIAVLFLFIITLLDINSTELSVKSNIRDLPLVLISLIVLTISGLMIYSNDSILINKLLEAFGNDYNTIITQDWFNIENTTLLTTIGNVLLTNNAFILLVLAIVLLLGIIGPISITMKHKE"}}, "target": "T1, complex I subunit ND1 (Yarrowia lipolytica) (Yarrowia lipolytica, UniProt Q9B6E8 1-341)", "T1 sequence (looked up)": "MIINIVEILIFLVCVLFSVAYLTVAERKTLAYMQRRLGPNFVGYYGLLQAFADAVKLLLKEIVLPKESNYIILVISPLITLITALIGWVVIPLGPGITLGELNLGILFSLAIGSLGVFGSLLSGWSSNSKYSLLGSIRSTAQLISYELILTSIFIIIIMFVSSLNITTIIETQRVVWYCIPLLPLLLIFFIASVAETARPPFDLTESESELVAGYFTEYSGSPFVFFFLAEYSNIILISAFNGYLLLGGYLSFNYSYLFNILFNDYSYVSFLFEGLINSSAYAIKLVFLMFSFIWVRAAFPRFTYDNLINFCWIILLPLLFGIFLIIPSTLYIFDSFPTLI", "assay": "cryo-EM structure"}
{"binder": "B1", "values": [{"measurement": "binding result", "result": "binds"}]}
